Source: publication PMC4565128

Molecular target: Aldehyde dehydrogenase 7A1 (full-length recombinant human cytosolic ALDH7A1 isoform 2) (human)
Test: SAXS

stoichiometry N: 4
Substance: Aldehyde dehydrogenase 7A1 (full-length recombinant human cytosolic ALDH7A1 isoform 2) (enzyme)
